According to patent publication US20060026702A1, “Phosphoinositide 3-kinase mediated inhibition of GPCRs” (DUKE UNIVERSITY, priority 2002, published 2006):

Key:
Format in all cases: cell-based
V2R-GFP = molecular target: T1, V2R-GFP (Homo sapiens, UniProt P30518); experiment: Endocytosis of V2R-GFP in live cells by confocal microscopy; conditions: AVP 10 μM; HEAT co-expressed
T1 construct: expressed in transfected cells; host or cells: HEK 293
Experimental: Disruption of the endogenous βARK1/PI3K interaction by the HEAT protein attenuated V2R endocytosis. Endocytosis of V2R-GFP in live cells was monitored for 20 min following AVP (10 μM) stimulation in the absence or presence of HEAT protein co-expression using confocal microscopy. HEK 293 cells were transfected with either GFP-V2R (2 μg)/pRK5 (2 μg) or GFP-V2R (2 μg)/HEAT (2 μg). V2R internalization was followed in the same cell after agonist stimulation. Prior to agonist, the distribution of V2R-GFP was found distinctly at the plasma membrane (FIG. 14, 0 min). Following agonist treatment, there was redistribution of the V2R-GFP into membrane puncta consistent with entry into clathrin coated pits. With time, this was followed by the formation of cytoplasmic aggregates, and then with the complete loss of membrane fluorescence (FIG. 14, 6-24 min). […] In FIG. 14, panels on the left represent cells transfected with the V2R-GFP alone (panels show the same cell monitored at 0, 6, 12, 18, and 24 min following stimulation). Panels on the right represent cell transfected with V2R-GFP and HEAT (panels show the same cell monitored as above). In the absence of HEAT, agonist caused the internalization V2R5 as shown by the formation of distinct cytoplasmic aggregates and complete loss of membrane fluorescence.

AT1AR-GFP = molecular target: T2, AT1AR-GFP (Rattus norvegicus, UniProt P25095); experiment: Endocytosis of AT1AR-GFP in live cells by confocal microscopy; conditions: Angiotensin II 10 μM, 20 min; HEAT co-expressed
T2 construct: expressed in transfected cells; host or cells: HEK 293
T2 sequence (P25095 1-359): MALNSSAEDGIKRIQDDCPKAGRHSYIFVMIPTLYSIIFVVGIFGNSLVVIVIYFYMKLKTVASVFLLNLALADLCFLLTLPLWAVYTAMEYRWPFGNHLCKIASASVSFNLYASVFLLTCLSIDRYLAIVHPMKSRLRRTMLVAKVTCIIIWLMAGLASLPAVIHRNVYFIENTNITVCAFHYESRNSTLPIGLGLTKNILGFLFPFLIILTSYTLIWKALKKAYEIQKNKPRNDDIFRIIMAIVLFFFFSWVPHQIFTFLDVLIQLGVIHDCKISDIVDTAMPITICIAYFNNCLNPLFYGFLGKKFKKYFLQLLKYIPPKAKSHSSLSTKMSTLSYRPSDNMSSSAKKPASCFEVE
Experimental: Disruption of the endogenous βARK1/PI3K interaction by the HEAT protein attenuated AT1AR endocytosis. Endocytosis of AT1AR-GFP in live cells was monitored for 20 min following angiotensin (10 μM) stimulation in the absence or presence of HEAT protein co-expression using confocal microscopy. HEK 293 cells were transfected with 2 μg Angiotensin II Type 1 Receptor, or with 2 pg Angiotensin II Type 1 Receptor and 2 μg HEAT, and stimulated for 20 minutes with 10 μM Angiotensin II. AT1AR internalization was followed in the same cell after agonist stimulation. Prior to agonist, the distribution of AT1AR-GFP was found distinctly at the plasma membrane (FIG. 15, 0 min). […] With time, this was followed by the formation of cytoplasmic aggregates, and then with the complete loss of membrane fluorescence (FIG. 15, 5-20 min). […] In FIG. 15, panels on the left represent cells transfected with the AT1AR-GFP alone (panels show the same cell monitored at 0, 5, 10, 15, and 20 min following stimulation). Panels on the right represent cell transfected with AT1AR-GFP and HEAT (panels show the same cell monitored as above). In the absence of HEAT, agonist caused the internalization AT1ARs as shown by the formation of distinct cytoplasmic aggregates and complete loss of membrane fluorescence.

β2AR complex = experiment: Recruitment of AP-2 adaptin and clathrin to the agonist-stimulated β2AR complex (immunoprecipitation, immunoblot); conditions: HEAT co-transfected
Experimental: Immunoblotting and Detection—Immunoblotting and detection of PI3K, βARK1, HA-PI3Kγ, HA-ΔPI3Kγ, Myc-PI3Kα, FLAG-HEAT, PI3KΔHEAT-HA, FLAG-β2AR, HA-β2AR, β-adaptin and clathrin was carried out as previously described. Immunoprecipitating antibodies were added to 500 μg of cell lysate in lysis buffer followed by the addition of 35 μl of 1:1 Protein A- or G-agarose. Samples were rocked overnight at 4° C. then centrifuged at 12,000×g for 5 min. Immunoprecipitates were washed twice with lysis buffer, twice with 1×PBS and resuspended in 1×SDS-gel loading buffer. Proteins were resolved by SDS-polyacrylamide gel electrophoresis and blotted on to PVDF membrane (Bio-Rad). Blots were incubated with antibodies recognizing PI3K, Myc (Santa-Cruz), β-adaptin, clathrin heavy chain (BD Transduction Laboratories), HA (Roche Molecular Biochemicals) and FLAG (Sigma) at 1:2000 dilution and the βARK1 monoclonal antibody at 1:10,000 dilution. Blots were subsequently incubated with appropriate secondary antibody (1:2000 dilution) conjugated to horseradish peroxidase (Amersham Pharmacia Biotech) and detection was carried out using enhanced chemiluminescence. […]
The present inventors determined that βARK1-mediated localization of PI3K within the activated receptor complex is responsible for the generation of D-3 phosphatidylinositols necessary for the efficient recruitment of adaptin to the P2AR complex. […]

B1: HEAT: 197 amino acid HEAT domain of PI3Kγ, FLAG epitope-tagged (SEQ ID NO: 2), overexpressed in cells (protein, listed as Homo sapiens)
chain: MDYKDDDDKHPIALPKHQPTPDDRVRAEMPNQLRKQLEAIIATDTAEDKELLWHFRYESLKHPKAYPKLFSSVKWGQQEIVAKTYQLLARREVWDQSALDVGLTMQLLDCNFSDENVRAIAVQKLESLEDDDVLHYLLQLVQAVKFEPYHDSALARFLLKRGLRNKRIGHFLFWFLRSEIAQSRHYQQRFAVILEAYLRGCGTA
modifications: FLAG tag
receptor endocytosis (redistribution of V2R-GFP) (V2R-GFP): completely inhibited
receptor endocytosis (redistribution of AT1AR-GFP) (AT1AR-GFP): completely inhibited
recruitment of adaptin to the agonist-stimulated β2AR complex (β2AR complex; 10 μM isoproterenol 0-10 min): completely abolished
clathrin co-immunoprecipitated with the receptor after agonist (β2AR complex): attenuated
